Measured values as given in publication PMC5655499, “Peptide array-based screening reveals a large number of proteins interacting with the ankyrin-repeat domain of the zDHHC17 S-acyltransferase” (The Journal of Biological Chemistry, 2017).

Biological target: T1, His6-tagged AR domain (residues 51–288) of zDHHC17 (human, UniProt Q8IUH5 51-288)
T1 construct: ankyrin-repeat (AR) domain of human zDHHC17 (HIP14), residues 51-288; pET303CT-His plasmid; also called ARzD17-His; ARzD17; source: E. coli BL21(DE3)pLysS, purified; not shown: His6 (after a Leu-Glu linker), C-terminal, kept
T1 sequence (looked up): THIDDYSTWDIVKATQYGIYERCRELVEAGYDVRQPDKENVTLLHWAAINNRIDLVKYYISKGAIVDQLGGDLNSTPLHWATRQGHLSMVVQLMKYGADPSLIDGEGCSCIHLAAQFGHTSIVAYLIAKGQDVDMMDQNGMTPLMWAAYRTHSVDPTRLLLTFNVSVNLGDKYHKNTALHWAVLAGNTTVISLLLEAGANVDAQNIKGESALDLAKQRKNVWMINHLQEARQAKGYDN
Test: peptide or protein array; far-Western on an array of 109 SPOT-synthesised 12-mer peptides on cellulose membrane; ARzD17-His (51–288) 500 nM in PBS-T overnight at 4 °C; detected with His6 tag antibody; signals normalised to the highest (1000), values <10 non-binders
Settings: both partners purified

B1: PDE4D (Pro-46) zDABM 12-mer peptide (peptide, UniProt Q08499 39-50, looked up)
peptide: HQYPLRQPQFRL
notes: 12-mer of human PDE4D with Pro-46 at position 7 and YP at positions 2-3; source: synthetic peptide, SPOT synthesis on cellulose membrane
Q: Does B1 bind?
A: binds

B2: SLAIN1 (Pro-541) zDABM 12-mer peptide (peptide, UniProt Q8ND83 534-545, looked up)
peptide: PRSKIAQPVRSF
notes: also called SLAI1; SLAIN motif-containing protein 1; source: synthetic peptide, SPOT synthesis on cellulose membrane
Q: Does B2 bind?
A: binds
